The text below walks through data of article PMC2190570.

Assay [1] has as its target wild-type lamin B1 (human) (UniProt P20700). Kind of assay: binding to an immobilised lamin matrix with urea step elution.
The target of assay [2] is lamin B1Δrod mutant (human) (UniProt P20700). Described as above.
Assay [3] shares this target. The assay is described as follows: cross-linking.
Assay [4] deals with T1, wild-type lamin B1 (human), P20700.
T1 chain: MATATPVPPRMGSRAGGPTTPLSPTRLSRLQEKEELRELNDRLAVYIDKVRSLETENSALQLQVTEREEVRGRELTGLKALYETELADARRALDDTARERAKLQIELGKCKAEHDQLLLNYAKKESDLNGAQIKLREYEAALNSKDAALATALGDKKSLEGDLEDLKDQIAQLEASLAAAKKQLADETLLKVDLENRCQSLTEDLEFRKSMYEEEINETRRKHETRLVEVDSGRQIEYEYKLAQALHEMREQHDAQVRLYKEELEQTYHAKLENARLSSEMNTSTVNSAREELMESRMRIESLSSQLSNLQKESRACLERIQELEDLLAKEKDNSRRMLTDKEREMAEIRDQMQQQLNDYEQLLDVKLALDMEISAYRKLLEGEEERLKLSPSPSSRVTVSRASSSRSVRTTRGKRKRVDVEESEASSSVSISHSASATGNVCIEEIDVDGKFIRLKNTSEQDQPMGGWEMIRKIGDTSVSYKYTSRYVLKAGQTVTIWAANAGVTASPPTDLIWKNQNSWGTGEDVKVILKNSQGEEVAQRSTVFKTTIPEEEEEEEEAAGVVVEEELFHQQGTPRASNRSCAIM
The assay is described as follows: binding to an immobilised lamin matrix with urea step elution. The settings on record: remark: other sources report otherwise.

Assay [5] shares this target. Kind of assay: cross-linking. The settings on record: remark: other sources report otherwise.

“And” between values parts separate entries of the source, which are not always exact repeats. Identical values can stand only once.

For the molecule “lamin C (from UniProt P02545-2 1-572) (natural protein)”, the urea concentration at which elution began was determined as 3 M in assay [1] and 0.5 M in assay [2]. The urea concentration at which the majority eluted was 5 to 7 M in assay [1] and 2 to 3 M in assay [2].
“lamin B1Δrod mutant (from UniProt P20700 1-69; P20700 340-586) (natural protein)”: the stoichiometry N in assay [3] was found to be 2.
Take “wild-type lamin B1 (from UniProt P20700 1-586) (natural protein)”: the urea concentration at which most protein eluted in assay [2] is 4 M and 7 M.
“lamin A (from UniProt P02545 1-646) (natural protein)”: the urea concentration at which the majority eluted in assay [1] was 7 M; in assay [2], 2 M and 4 M.

B1: wild-type lamin B1, P20700 1-586 (natural protein)
chain: MATATPVPPRMGSRAGGPTTPLSPTRLSRLQEKEELRELNDRLAVYIDKVRSLETENSALQLQVTEREEVRGRELTGLKALYETELADARRALDDTARERAKLQIELGKCKAEHDQLLLNYAKKESDLNGAQIKLREYEAALNSKDAALATALGDKKSLEGDLEDLKDQIAQLEASLAAAKKQLADETLLKVDLENRCQSLTEDLEFRKSMYEEEINETRRKHETRLVEVDSGRQIEYEYKLAQALHEMREQHDAQVRLYKEELEQTYHAKLENARLSSEMNTSTVNSAREELMESRMRIESLSSQLSNLQKESRACLERIQELEDLLAKEKDNSRRMLTDKEREMAEIRDQMQQQLNDYEQLLDVKLALDMEISAYRKLLEGEEERLKLSPSPSSRVTVSRASSSRSVRTTRGKRKRVDVEESEASSSVSISHSASATGNVCIEEIDVDGKFIRLKNTSEQDQPMGGWEMIRKIGDTSVSYKYTSRYVLKAGQTVTIWAANAGVTASPPTDLIWKNQNSWGTGEDVKVILKNSQGEEVAQRSTVFKTTIPEEEEEEEEAAGVVVEEELFHQQGTPRASNRSCAIM
As for B1, the urea concentration at which most protein eluted in assay [4] was 7 M and 4 M. The molecule further returned a stoichiometry N in assay [5] of 2.
